# Where “and” joins values, the source holds several entries; their conditions need not be identical. Identical values can stand only once. Like-named read-outs stand apart in the source and are kept apart here.
# Experiments:
# [1] = tested on: homocysteine, cystathionine, and cysteine; assay: Long-term administration of PEGylated htCBS C15S conjugates in HO mice: plasma metabolites; format: in vivo; conditions: 7.5 mg/kg/day SC, 5 daily injections per bout
# Protocol: In one set of experiments, htCBS C15S PEGylated with either ME-200MA0B, ME-200GS, GL4-400MA, or ME-400MA was evaluated. Six groups of HO mice were used to conduct these studies: two groups received 200MA0B PEG-htCBS C15S (Groups 1 and 3), one group received 20NHS PEG-htCBS C15S (Group 4), one group received GL4-400MA PEG-htCBS C15S (Group 5), and two groups received 400MA PEG-htCBS C15S (Group 6 and 7). Both male and female HO mice were used (total n=6 to 8 mice per group) in these studies.
# For Group 1, the mice received 2 bouts of 5 daily subcutaneous injections of 200MA0B PEG-htCBS C15S on days 1, 2, 3, 4, and 5 (week 1) and days 15, 16, 17, 18, and 19 (week 3). The dose for this experiment was 5 mg/kg/day. A saline control group (Group 2) was included in this experiment. All other groups received 3 bouts of 5 daily subcutaneous injections on days 1, 2, 3, 4, and 5 (week 1); days 15, 16, 17, 18, and 19 (week 3); and days 29, 30, 31, 32 and 33 (week 5). The dose for these experiments was 7.5 mg/kg/day.
# In a separate set of experiments, htCBS C15S PEGylated with ME-200MA0B or ME050GS was evaluated. Two groups of male and female HO mice (1M/5F) received 3 bouts of 5 daily subcutaneous injections of either 200MA0B PEG-htCBS C15S (Group 8) or 050GS PEG-htCBS (Group 9) on days 1, 2, 3, 4, and 5 (week 1); days 15, 16, 17, 18, and 19 (week 3); and days 29, 30, 31, 32 and 33 (week 5). The dose was 7.5 mg/kg/day.
# In all sets of experiments, each 5-day dosing cycle was followed by a 10-day “washout period”. Blood was sampled using a submandibular lancet on Monday, Wednesday, and Friday of the dosing weeks (1, 3, and 5) and on the first day (Monday) of each 10-day washout period. All blood sampling procedures and subcutaneous injections were conducted at 3 P.M. to avoid artifacts due to diurnal variations. On days where both blood sampling and injection were conducted the blood sampling procedure was conducted prior to enzyme administration.
# The pharmacodynamic response in HO mice to each PEGylated htCBS C15S conjugate was assessed for each bout of dosing by quantitating plasma levels of metabolites homocysteine, cystathionine, and cysteine, which are associated with the transsulfuration pathway, at baseline and after treatment. Quantification was performed by stable-isotope-dilution liquid chromatography mass spectrometry (LC/MS) as described in Example 1. The maximal percent change of homocysteine, cystathionine, and cysteine was calculated compared to baseline values for each dose week.
# [2] = cynomolgus monkey, in vivo
# Protocol: (§1) The pharmacokinetic (PK) parameters were calculated using a non-compartmental curve stripping model which resolves a curve into a series of exponential terms corresponding to the absorption, distribution and elimination phases occurring during the time course of the enzyme in the blood. The curve stripping approach assumes that the disposition phases of the drug follow apparent first-order kinetics, which is evidenced by the linearity in the terminal portion of a semi-log plot. These calculations were made using a modeling program called PK Solutions 2.0 (Summit Solutions, Montrose, CO) using the mean plasma enzyme activity for each route of administration. The bioavailability was calculated by dividing the area under the curve (AUC) for the SC or IP route by the AUC observed after IV administration.
# (§2) For the single dose PK study, three experimental groups of 4 (n=2M+2F) monkeys each were used to conduct the experiments. The first group received 2 mg/kg 20NHS PEG-htCBS C15S via IV injection. Blood was collected at 0, 0.083, 0.16, 0.25, 0.5, 1, 2, 4, 8, 24, 72, 120, and 192 hours post IV injection. The second and third groups received either 2 mg/kg or 6 mg/kg 20NHS PEG-htCBS C15S via SC injection. Blood was collected at 0, 1, 2, 4, 8, 24, 48, 72, 96, 120, 192, 240, and 336 hours post SC injection.
# Hcy, Cys = assay: Plasma metabolites in the I278T facial alopecia study; format: in vivo, I278T mice; conditions: 3 times per week, 24 hours after injection
# Protocol: Plasma metabolites homocysteine, cystathionine and cysteine were determined by stable-isotope-dilution liquid chromatography mass spectrometry as previously described in (Allen et al., 1993, Metabolism, 42: 1448-1460). Measurements of total non-protein bound homocysteine and other aminothiols as well as of amino acids in tissue were performed as described in (Maclean et al., 2010b. Mol. Genet. Metab. 101, 153-162). Metabolites were determined by stable-isotope-dilution liquid chromatography mass spectrometry.
# The second group (n=3; 2 males, 1 female) was continuously injected with 7.5 mg/kg of 200MA0B PEG-htCBS C15S administered subcutaneously from 3 W of age until 41 weeks of age. Weight was initially monitored weekly. Physical look was recorded before the experiment and was monitored weekly or bi-weekly after the initial 6 W injection regimen. Metabolite levels were checked before the experiment and 24 hours after the last injection of initial 6 W injection regiment and then followed weekly or bi-weekly.
# The I278T mice, which were at least 120D (W17) old and had visible, fully developed facial alopecia, were split into 2 groups. […] Metabolite levels were determined prior to the treatment initiation and measured during the study 24 hours after the injection, and weight and physical look were initially monitored weekly, and later bi-weekly.
# [3] = Pharmacokinetics of 20NHS PEG-htCBS C15S in monkeys
# Protocol: as §1, §2
substance,measurement,setting,value
20NHS PEG-htCBS C15S: htCBS C15S PEGylated with ME-200GS PEG (20 kDa linear NHS ester-activated PEG),"cystathionine, Percent Increase at Peak, Week 1",[1],676%
same,"cystathionine, Percent Increase at Peak, Week 3",[1],492%
same,"cystathionine, Percent Increase at Peak, Week 5",[1],432%
same,"cysteine, Percent increase at Peak, Week 1",[1],59%
same,"cysteine, Percent increase at Peak, Week 3",[1],61%
same,"cysteine, Percent increase at Peak, Week 5",[1],51%
same,"total Hcy, Percent Decrease at Trough, Week 1",[1],77%
same,"total Hcy, Percent Decrease at Trough, Week 3",[1],70%
same,"total Hcy, Percent Decrease at Trough, Week 5",[1],66%
same,"total Hcy, Percent Decrease at Trough, Week 1",[1]; listed as ME-200GS,77%
same,"total Hcy, Percent Decrease at Trough, Week 3",[1]; listed as ME-200GS,70%
same,"total Hcy, Percent Decrease at Trough, Week 5",[1]; listed as ME-200GS,66%
same,AUC0-t/dose,"[2]; iv, 2 mg/kg",2971 ± 78 mU-h/μl/(mg/kg)
same,AUC/dose,[2]; sc,2744 (mU-h/mL)/(mg/kg)
same,cmax/dose,[2]; sc,20 (mU/μL)/(mg/kg)
same,elimination half-life (T1/2),[2]; sc,73 h
same,AUC0-t/dose,"[2]; sc, 2 mg/kg",2761 ± 160 mU-h/μl/(mg/kg)
same,cmax/dose,"[2]; sc, 2 mg/kg",20.4 ± 1.0 mU/μl/(mg/kg)
same,t1/2-A,"[2]; sc, 2 mg/kg",7.9 ± 1.0 h
same,t1/2-E,"[2]; sc, 2 mg/kg",72.9 ± 1.1 h
same,AUC0-t/dose,"[2]; sc, 6 mg/kg",2727 ± 119 mU-h/μl/(mg/kg)
same,cmax/dose,"[2]; sc, 6 mg/kg",19.2 ± 1.3 mU/μl/(mg/kg)
same,t1/2-A,"[2]; sc, 6 mg/kg",9.7 ± 1.0 h
same,t1/2-E,"[2]; sc, 6 mg/kg",72.8 ± 1.7 h
same,Hcy and Cys change vs 400MA PEG-htCBS C15S,"Hcy, Cys",decrease Hcy levels and increase Cys levels more substantially
same,AUC(0-t) (obs area),[3]; 2 mg/kg IV,5942 ± 156 mU-h/μl
same,Bioavailability,[3]; 2 mg/kg IV,100%
same,CL (obs area),[3]; 2 mg/kg IV,22.4 ± 1.27 mL/day/kg
same,MRT (area),[3]; 2 mg/kg IV,89.9 ± 2.4 h
same,cp0,[3]; 2 mg/kg IV,96.5 ± 2.8 mU/μl
same,AUC(0-t) (obs area),[3]; 2 mg/kg SC,5263 ± 299 mU-h/μl
same,Bioavailability,[3]; 2 mg/kg SC,80.8 ± 4.7%
same,MRT (area),[3]; 2 mg/kg SC,116.3 ± 2.4 h
same,cmax,[3]; 2 mg/kg SC,40.8 mU/μl and 40.8 ± 2.0 mU/μl
same,tmax (obs),[3]; 2 mg/kg SC,26.2 ± 2.6 h
same,AUC(0-t) (obs area),[3]; 6 mg/kg SC,15743 ± 629 mU-h/μl
same,Bioavailability,[3]; 6 mg/kg SC,79.9 ± 3.5%
same,MRT (area),[3]; 6 mg/kg SC,116.2 ± 5.0 h
same,cmax,[3]; 6 mg/kg SC,114.9 mU/μl and 114.9 ± 7.5 mU/μl
same,tmax (obs),[3]; 6 mg/kg SC,32.4 ± 2.4 h
same,CBS activity after repeated administrations,[3]; 6 SC doses every 72 hours,no attenuation of CBS activity
same,tmax,"[3]; Monkey/both sexes, SC",29 h
same,bioavailability (F %) after SC administration,"[3]; monkeys, both sexes, across SC doses, listed as OT-58",81%
